In experiment [1] the target is T1, human LAG3 expressed on HEK293 cells (human, UniProt P18627 23-525).
T1 construct: also called hLAG3; HEK293/hLAG3
T1 sequence: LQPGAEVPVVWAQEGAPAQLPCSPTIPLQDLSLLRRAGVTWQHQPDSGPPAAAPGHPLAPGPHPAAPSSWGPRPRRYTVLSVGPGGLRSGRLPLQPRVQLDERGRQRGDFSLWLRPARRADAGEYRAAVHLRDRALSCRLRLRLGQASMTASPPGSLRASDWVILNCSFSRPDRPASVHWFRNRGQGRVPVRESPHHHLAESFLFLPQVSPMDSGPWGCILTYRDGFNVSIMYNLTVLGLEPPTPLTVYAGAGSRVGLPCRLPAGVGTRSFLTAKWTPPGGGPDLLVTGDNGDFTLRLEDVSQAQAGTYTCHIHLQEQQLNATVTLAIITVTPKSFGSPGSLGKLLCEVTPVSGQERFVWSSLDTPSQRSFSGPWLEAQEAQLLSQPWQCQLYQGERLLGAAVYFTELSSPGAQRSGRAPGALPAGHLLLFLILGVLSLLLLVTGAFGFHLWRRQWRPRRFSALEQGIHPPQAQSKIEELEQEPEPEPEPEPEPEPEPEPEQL
In words: electrochemiluminescence cell binding, HEK293-hLAG3. As for the experimental part: (§1) To investigate the ability of a panel of anti-LAG3 monoclonal antibodies to bind cell-surface expressed LAG3, an in vitro binding assay utilizing human and monkey LAG3 expressing cell lines in an electrochemiluminescence based detection platform [Meso Scale Diagnostics, Rockville, Md.—(MSD)] was developed.
(§2) Experiments were carried out according to following procedure. Cells from the three cell lines described above were rinsed once in 1×PBS buffer without Ca²⁺/Mg²⁺ followed by 10-minute incubation at 37° C. with Enzyme Free Cell Dissociation Solution. […] Approximately 10,000 cells per well in the cell-washing buffer were seeded into the 96-well carbon electrode plates (MULTI-ARRAY high bind plate, MSD) and incubated for 1 hour at 37° C. to allow the cells to adhere. Nonspecific binding sites were blocked by 2% BSA (w/v) in PBS for 1 hour at room temperature. […] The plates were then washed to remove the unbound antibodies using an AquaMax2000 plate washer (MDS Analytical Technologies). The plate-bound antibodies were detected with a SULFO-TAG™-conjugated anti-human IgG antibody (MSD) for 1 hour at room temperature. After washes, the plates were developed with the Read Buffer (MSD) according to manufacturer's recommended procedure and the luminescent signals were recorded with a SECTOR Imager 6000 (MSD) instrument. The direct binding signals (in relative light units—RLU) were analyzed as a function of the antibody concentration and the data were fitted with a sigmoidal (four-parameter logistic) dose-response model using Graph Pad Prism™ software. The potency of each antibody was determined by calculating EC₅₀.

The target in experiment [2] is T1, human LAG3 expressed on HEK293 cells. In words: electrochemiluminescence cell binding. As for the experimental part: as §1, §2
Experiment [3] addresses T2, recombinant human LAG3 expressed with a C-terminal myc-myc-hexahistidine tag (human, UniProt P18627 29-450).
T2 construct: also called hLAG3-mmh; hLAG3.mmh
As to the kind of experiment: SPR, mAb captured, 25 C. The procedure: (§3) The BiaCore sensor surface was derivatized with either a polyclonal rabbit anti-mouse antibody (GE, # BR-1008-38) or with a monoclonal mouse anti-human Fc antibody (GE, # BR-1008-39) to capture approximately 50-85 RUs of anti-LAG3 monoclonal antibodies, expressed with either a mouse Fc or a human Fc, respectively. […] The binding of the LAG3 reagents to captured monoclonal antibodies was monitored for 4 minutes while their dissociation from the antibodies was monitored for 8 minutes in HBST running buffer (0.01 M HEPES pH 7.4, 0.15 M NaCl, 3 mM EDTA, 0.05% v/v Surfactant P20). Experiments were performed at 25° C. and 37° C. Kinetic association (kₐ) and dissociation (kd) rate constants were determined by processing and fitting the data to a 1:1 binding model using Scrubber 2.0c curve fitting software. Binding dissociation equilibrium constants (KD) and dissociative half-lives (t_{1/2}) were then calculated from the kinetic rate constants as: KD (M)=kd/kₐ and t_{1/2} (min)=[ln2/(60*kd)].
(SPR reads the build-up and loss of mass on a sensor chip optically.)

Experiment [4] has as its target T3, recombinant human LAG3 expressed with a C-terminal mouse IgG2a mFc tag (human).
T3 construct: Called dimeric; also called hLAG3-mFc; hLAG3 dimer
T3 chain: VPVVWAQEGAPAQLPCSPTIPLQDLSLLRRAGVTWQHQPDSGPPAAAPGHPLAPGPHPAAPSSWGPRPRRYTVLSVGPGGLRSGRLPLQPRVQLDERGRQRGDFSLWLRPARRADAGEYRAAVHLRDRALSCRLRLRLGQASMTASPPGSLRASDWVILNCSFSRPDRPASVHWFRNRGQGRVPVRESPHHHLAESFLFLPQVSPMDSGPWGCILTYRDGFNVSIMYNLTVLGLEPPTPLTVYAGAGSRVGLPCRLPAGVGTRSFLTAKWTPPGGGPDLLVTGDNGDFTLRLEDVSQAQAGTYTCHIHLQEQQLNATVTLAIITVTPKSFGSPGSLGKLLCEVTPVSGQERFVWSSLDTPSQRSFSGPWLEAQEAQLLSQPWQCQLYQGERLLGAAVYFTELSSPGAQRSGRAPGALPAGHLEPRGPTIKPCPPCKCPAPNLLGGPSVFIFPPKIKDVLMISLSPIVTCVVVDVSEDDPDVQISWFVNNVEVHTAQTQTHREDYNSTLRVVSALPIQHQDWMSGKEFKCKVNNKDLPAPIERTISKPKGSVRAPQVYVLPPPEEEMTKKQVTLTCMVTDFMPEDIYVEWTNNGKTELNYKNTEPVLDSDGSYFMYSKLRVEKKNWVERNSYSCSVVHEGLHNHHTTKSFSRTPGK
As to the kind of experiment: SPR, mAb captured, 25 C. The procedure: as §3

Positions count from the first letter of the chain named. Numbers in names are those of the source.

B1: H4H15479P (antibody, human IgG4, V domains shown)
VH: QVQLQQWGAGLLNPSETLSLTCAVYGGAFSDYYWNWIRQPPGKGLEWIGEINHRGSTNYNPSLKSRVTISVDTSKNQFSLRMSSVTAADAAVYYCARGEDYDIWNGYYQEKWGQGTLVTVSS
VL: EIVLTQSPATLSLSPGERATLSCRASQSISTYLAWYQQKPGQAPRLLIYDASKRATGIPARFSGSGSGTDFTLTISSLEPEDFVVYYCHQRSNWPLTFGGGTKVEIK
As a reminder, the EC50 is the concentration that produces a half-maximal response. Lower therefore signals higher potency in that assay. As a reminder, the Kd is the concentration at which binding is half-saturated. What is called koff is a measure of how fast the partners let go of each other. As a reminder, the kon is the second-order rate constant of association. As for B1, the response in experiment [1] was half-maximal at 52000 pM (EC50). Further, in experiment [2], the “Ratio of 100 nM antibody binding HEK293-hLAG3 to HEK293 cells” value (shortened to “Ratio”) was 20.1. Also, in experiment [3], the dissociation constant Kd is 49.3 pM, the dissociation rate constant (koff) was 5.35e-05 s⁻¹, the on-rate (kon) worked out at 1.09e+06 M⁻¹ s⁻¹ and the t1/2 was 3.6 h. In experiment [4], the equilibrium dissociation constant (Kd) was at most 4.35 pM, the dissociation rate constant (koff) was at most 1e-05 s⁻¹, the kon is 2.3e+06 M⁻¹ s⁻¹ and the t1/2 was at least 19.2 h.

B2: H4H14813N (antibody, human IgG4, V domains shown)
VH: QVQLQQWGAGLLKPSETLSLTCAVYGGSFSGYYWNWIRQPPGKGLEWVGEISHRGSTNYNPSLKSRVTISLDTSKNQFSLKLTSVTAADTAVYYCSRDEELEFRFFDYWGQGTLVTVSS
VL: B1 VL with I29V, T31S, I48V, D50G, K53N, V84A, V85F, H89Q
notes: H4H = human IgG4 Fc with S108P hinge mutation
Turning to B2, the response in experiment [1] was half-maximal at 19900 pM (EC50). Also, the “Ratio” value in experiment [2] worked out at 8.9. Besides, in experiment [3], the Kd was found to be 214 pM, the koff stood at 8.8e-05 s⁻¹, the kon was determined as 411000 M⁻¹ s⁻¹ and the t1/2 was found to be 2.19 h. For the same molecule, in experiment [4], the Kd is at most 10.4 pM, the koff is at most 1e-05 s⁻¹, the kon came out at 958000 M⁻¹ s⁻¹ and the t1/2 was at least 19.2 h.

B3: H4H15483P (antibody, human IgG4, V domains shown)
VH: QVQLQQWGAGLLPPSETLSLICAVYGGSFSGYYWSWIRQPPGKGLEWIGEINHRGSTNYNPSLKSRATISVDTSKNQFSLKLSSVTAADTAVYYCSRGEDYYDSSGYSYYFDYWGQGTLVTVSS
VL: B1 VL with I29V, T31S, K53N, V84A, H89Q
notes: as for B2
In experiment [1], B3 had an EC50 of 17200 pM. For the same molecule, the “Ratio” value in experiment [2] amounted to 6.6. Besides, in experiment [3], the Kd is 1970 pM, the koff was 0.00037 s⁻¹, the kon was 188000 M⁻¹ s⁻¹ and the t1/2 was 0.52 h. Further, in experiment [4], the Kd is at most 7.45 pM, the koff is at most 1e-05 s⁻¹, the kon turned out to be 1.34e+06 M⁻¹ s⁻¹ and the t1/2 is at least 19.2 h.

B4: H4sH14813N (antibody, human IgG4 S228P, kappa, V domains shown)
VH: B2 VH
VL: EIVLTQSPATLSLSPGERATLSCRASQSVSSYLAWYQQKPGQAPRLLVYGASNRATGIPARFSGSGSGTDFTLTISSLEPEDFAFYYCQQRSNWPLTFGGGTKVEIKR
notes: H4sH = modified human IgG4 Fc
Turning to B4, in experiment [1], the EC50 amounted to 20300 pM. Also, in experiment [2], the “Ratio” value stood at 19.8. In experiment [3], the Kd turned out to be 177 pM, the koff came out at 7.89e-05 s⁻¹, the kon turned out to be 445000 M⁻¹ s⁻¹ and the t1/2 was found to be 2.44 h. Further, in experiment [4], the dissociation constant Kd was determined as 10.6 pM, the koff was determined as 1.9e-05 s⁻¹, the kon was 1.8e+06 M⁻¹ s⁻¹ and the t1/2 was determined as 10.1 h.

B5: H4sH15498P2 (antibody, V domains shown)
VH: EVQLVESGGGLVQPGGSLRLSCAASGFTFTSYAMTWVRQAPGKGLEWVSDISGSGGRTYYADSVKGRFTISRDNSKNMLYLQMNILRAEDTAVYHCAKGTGQQVDLYNYYYALDVWGQGTTVTVSS
VL: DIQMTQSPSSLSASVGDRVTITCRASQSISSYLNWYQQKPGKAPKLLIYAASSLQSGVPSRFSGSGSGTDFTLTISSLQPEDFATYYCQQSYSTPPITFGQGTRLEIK
notes: H4sH = human IgG4 Fc with 2 or more amino acid changes as disclosed in US20140243504
B5 came in with an EC50 in experiment [1] of 2870 pM. Also, the “Ratio” value in experiment [2] was 99.8. In experiment [3], the Kd was 645 pM, the koff came to 0.000101 s⁻¹, the kon came to 157000 M⁻¹ s⁻¹ and the t1/2 turned out to be 1.9 h. Besides, in experiment [4], the Kd is at most 35.2 pM, the koff is at most 1e-05 s⁻¹, the on-rate (kon) was determined as 284000 M⁻¹ s⁻¹ and the t1/2 is at least 19.2 h.

B6: H4H15498P2 (antibody, human IgG4, V domains shown)
VH: B5 VH
VL: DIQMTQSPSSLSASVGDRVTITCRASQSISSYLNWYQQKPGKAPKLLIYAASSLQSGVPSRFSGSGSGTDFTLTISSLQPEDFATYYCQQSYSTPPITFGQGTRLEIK
notes: as for B2
The molecule B6 came in with an EC50 in experiment [1] of 2950 pM. In addition, in experiment [2], the “Ratio” value was 38.8. In experiment [3], the Kd was 260 pM, the koff is 7.81e-05 s⁻¹, the kon was 301000 M⁻¹ s⁻¹ and the t1/2 came to 2.46 h. Besides, in experiment [4], the Kd is at most 27.6 pM, the koff is at most 1e-05 s⁻¹, the kon came to 363000 M⁻¹ s⁻¹ and the t1/2 is at least 19.2 h.

B7: H4sH15482P (antibody, human IgG4 S228P, kappa)
heavy: QVQLVESGGGVVQPGRSLRLSCVASGFTFSSYGMHWVRQAPGKGLEWVAIIWYDGSNKYYADSVKGRFTISRDNSKNTQYLQMNSLRAEDTAVYYCASVATSGDFDYYGMDVWGQGTTVTVSSASTKGPSVFPLAPCSRSTSESTAALGCLVKDYFPEPVTVSWNSGALTSGVHTFPAVLQSSGLYSLSSVVTVPSSSLGTKTYTCNVDHKPSNTKVDKRVESKYGPPCPPCPAPPVAGPSVFLFPPKPKDTLMISRTPEVTCVVVDVSQEDPEVQFNWYVDGVEVHNAKTKPREEQFNSTYRVVSVLTVLHQDWLNGKEYKCKVSNKGLPSSIEKTISKAKGQPREPQVYTLPPSQEEMTKNQVSLTCLVKGFYPSDIAVEWESNGQPENNYKTTPPVLDSDGSFFLYSRLTVDKSRWQEGNVFSCSVMHEALHNHYTQKSLSLSLGK
light: EIVLTQSPATLSLSPGERTTLSCRASQRISTYLAWYQQKPGQAPRLLIYDASKRATGIPARFSGSGSGTGFTLTISSLEPEDFAVYYCQQRSNWPLTFGGGTKVEIKRTVAAPSVFIFPPSDEQLKSGTASVVCLLNNFYPREAKVQWKVDNALQSGNSQESVTEQDSKDSTYSLSSTLTLSKADYEKHKVYACEVTHQGLSSPVTKSFNRGEC
notes: H4sH = modified human IgG4 Fc; also called mAb1
Regarding B7, in experiment [3], the dissociation constant (Kd) was found to be 1230 pM and the t1/2 worked out at 0.742 h. For the same molecule, in experiment [4], the Kd is at most 14.1 pM and the t1/2 is at least 19.2 h.

B8: H4H15482P (antibody, human IgG4 S228P, kappa)
heavy: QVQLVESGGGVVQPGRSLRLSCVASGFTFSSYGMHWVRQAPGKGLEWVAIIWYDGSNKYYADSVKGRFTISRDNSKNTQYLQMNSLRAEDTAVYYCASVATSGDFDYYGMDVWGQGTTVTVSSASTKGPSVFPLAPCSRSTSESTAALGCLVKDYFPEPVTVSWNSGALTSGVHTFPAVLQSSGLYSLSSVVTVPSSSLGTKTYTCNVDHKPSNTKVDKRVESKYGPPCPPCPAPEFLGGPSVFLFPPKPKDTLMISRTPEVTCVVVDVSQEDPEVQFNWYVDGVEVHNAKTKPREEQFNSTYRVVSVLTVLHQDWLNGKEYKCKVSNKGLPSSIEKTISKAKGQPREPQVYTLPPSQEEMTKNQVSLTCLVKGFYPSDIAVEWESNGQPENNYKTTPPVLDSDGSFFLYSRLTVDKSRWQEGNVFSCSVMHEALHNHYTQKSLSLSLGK
light: B7 light
notes: H4H = human IgG4 Fc with S108P
For the molecule B8, in experiment [1], the concentration giving a half-maximal response (EC50) was determined as 24700 pM. In experiment [3], the Kd came to 972 pM and the t1/2 stood at 0.995 h. Besides, in experiment [4], the Kd is at most 13.2 pM and the t1/2 is at least 19.2 h.

Source of the values: patent publication US20170101472A1 (Regeneron, published 2017).
